Experiment: Concentration of cytochrome P450 in cell-free extract by carbon monoxide difference spectrum (Omura and Sato)
Procedure: Measurement is performed according to the method of Omura and Sato et al. (J Biol Chem, 239. 1964, 2370). That is to say, cytochrome P450 is analyzed quantitatively using the following formula, based on the difference in the absorbance of the reduced CO versus the reduced difference spectrum at 450 nm and 490 nm.
Measurement of the concentration of cytochrome P450 were performed according to the method of Omura and Sato et al. (J Biol Chem, 239. 1964, 2370). Cytochrome P450 concentrations of cell-free extracts of induced E. coli BL21 (DE3) Rosetta2 & Tuner cells harbouring either pHD05-SriC01, pHD02-SriC12-SriF05, pHD05-SriC14-SriF06, pHD05-SriC20, pHD05-SriC22 or pHD05-SriC51-SriF08 are shown in Table 2. Carbon monoxide difference spectra for P450SriC01, P450SriC12, P450SriC14, P450SriC20, P450SriC22 and P450SriC51 are shown in FIGS. 9, 10, 11, 19, 20 & 21 respectively.
The native and codon optimised P450sriC12 and ferredoxinsriF05 in pHD02-SriC12-SriF05 and pHD02-SriC12CO-SriF05CO respectively were introduced into E. coli BL21 (DE3). The recombinant strains were cultured and proteins were induced as in Example 2. The cell-free extract material was obtained as in Example 3 and carbon monoxide difference spectrums were measure to calculate the concentration of cytochrome P450.
The resulting plasmids containing the new mutants genes were transformed into recombinant E. coli strains for expression as described in Example 1, cultured and induced as described in Example 2, extracted and processed as described in Example 3 and tested for biocatalytic activity as described in Example 5 above. The carbon monoxide difference spectrum result of R63W mutant of codon optimised P450SriC12 is shown in FIG. 14 and the cytochrome P450 concentration of mutant P450SriC12 are shown in Table 5.

[1] = native enzymes expressed in E. coli BL21 (DE3) Rosetta2 & Tuner cells, cell-free extract

B1: SriC22: cytochrome P450 from Streptomyces rimosus NRRL-2234, SEQ ID NO: 51 (protein, listed as Streptomyces rimosus)
chain: MTTSPTESTTATPPDSTTASAPGTPPDALPSYVGLHPGEPNVMEPELLNDPYAGYGKLREQGALVRGRFLDDSPVWLVTRFDVVREVMRDPRFINNPSRLPGRTEKDPRAQLIELFGIPDHMARYLVDTILTSDPPDHTRLRRLVSRAFTARRIQDLRPRVEAITDELLDRLPAHAQDGVVDLVEHFAYPLPITVICELVGIDEEDRPLWRQFGADLTSLEPKRIGATVPAMVEHIHKVIGERQSALRDDLLSALIRARDDDGGRLSETEMVTMVLTLVLAGHETTAHLISNGTLALLTHPDQRRLLTEDPGLLPRAVHELMRWCGPIQATQLRYASEDVEVAGTQVHKGDALMFSLVAANHDPRHYTEPEKLDLTRQPAGRAEDHVGFGHGMHYCLGASLARQEGEVAFGKLLARYPEVALALPHEQLEEQERIRQPGSWRLRRLPLRLRPED
**Q.** With B1 as the molecule, how does the P450 concentration [1] read?
**A.** 18.4 µM

B2: SriC51-SriF08: cytochrome P450 SriC51 (SEQ ID NO: 109) with ferredoxin SriF08 (SEQ ID NO: 110) (protein, listed as Streptomyces rimosus)
chain 1: MTTADTMPLAYPFNDADGLALSETYEQVRDRPGLLRVQMAYGEPAWLATRYADARLVLGDRRFSRAEGLERDEPRQSEGQRDSGILSMDPPDHTRLRTLVAKAFTVHQVEKLRPWVRELTHGLIDELEAAGPPVDLVDRYALPIPVAVICRMLGVPEEDRPKFRTWSDAALSTSSLTAEEFEANREELRAYMAKLIEDHRTTPRDDLMTRLIEARDVGDRLSELELIDLCVGILVAGHETTATQIPNFVLSLLDHPGELERLRAEPALIKSAVEELLRFVPLGSGAGFPRYATEDIEVGGTLVRAGEPVLVAVGAANRDALRFDEPGTLNITRDGNQHLGFGHGVHHCLGAPLARLELQEALIALITRFPKLHVAGDVVWKDQMLVRGPRVMPVGW
chain 2: MTWKAAIDGQQCMASGMCAGIAPDLFVLDGPHARPLQEEIPEDEAALDAADSCPAMAILIRDGEKVVGPRP
**Q.** Which P450 concentration [1] does the source give for B2 here?
**A.** 25.0 µM

B3: SriC01: cytochrome P450 from Streptomyces rimosus NRRL-2234, amino acid sequence SEQ ID NO: 2 (protein, listed as Streptomyces rimosus)
chain: MTETIPFEAVDGAVRPSEEVPVVDLSATGLSDTPLQQAMGLAREHGAVYRRRLHGHEALLVSSLELVTELADENRFAKGVSVALENVREFAGDGLFTAYNDEPNWAKAHDILMPAFALGSMRTYHPAMLKVARRVIGSWDRRAADGTPVDVPDDMTRMTLDTIGLAGFGFDFESFSRATMHPFVEAMVRCLEWSMKRLGREPDGDYTEEDAAFRADADYLASVVDEVIASRTGADGTPGEEAGDDLLGLMLGATHPADGTTLDLANIRNQVITFLIAGHETTSGALSFALYHLLKDPAALRLAQREADELWGDQTDPDPSFEDIGRLPYTRQVLNEALRLWPTAAAFSRQARTDTLLGGRIPLKAGQLVTVLTPMLHRDPAWGDNPELFDPTRFAPEAEAARSPHAYKPFGTGERACIGRQFALHEATMLLAMLVHRYRLIDHSDYRLSIKETLTLKPDGFTLTLARRTPADRAGLRAALAVLPGGAAEPDGTESGTDDGLPTRVRQDTALLLLHGTNYGTCRDFAERIADEATGLGFTTEVAPLDAATGALPTDRPVVIVTASYNGQPTDDAARFVEWLSGDEARAEGVPYAVLGVGDRNWAATYQRVPTLLDERLAALGAERLLPRGEADASGDLNGAVKAFTATLRTELLVRYGDPATIGASTPADATDASYTVREVTGGPLDALAARHGLQPMTVTEAYDLTAPGYPRVKRFLRLTLPEGVTYRTADHLAVLPANGAAAVERAAQVLGVSLEAVLDIRAGAGRGGRDTLPVDRPLTVRQLLTHHLELNARPTAAQRAVLADHNPCPPERAALQAIPDDDPRTTLDLIEEHPALRGVLPWPVLLDLLPALRIRHYSLSSSPAADPRHADLMVSLLPGGTGSGHLHTLRPGDTVLARVQPCREAFRLDPADPTPVILVAAGTGLAPFRGAVADRLAATQLAPALLYFGCDALEADYLHAEELQAAEAAGAVSLRPAFSARPVDGCRYVQHRIAAEAEEVGALLDAGARVYVCGDGNRMAPGVRAAFRELYAARTGATQEEAEVWLRELTAAGRYVEDVYVTG
**Q.** Which P450 concentration [1] does the source give for B3 here?
**A.** 33.5 µM

B4: SriC12-SriF05: cytochrome P450 SriC12 (SEQ ID NO: 29) co-expressed with ferredoxin SriF05 (SEQ ID NO: 30), native coding sequence (protein, listed as Streptomyces rimosus)
chain 1: MTEALPFPQDRTCPYDPPAGYQPLRDSRPLSRVTLYDGRPAWVVTGHAESRALLTDPRLSADRQNPAFPSPAPRFETLRKVRTPLLGVDDPEHNTQRRMLIPSFSVKRAAALRPRIQEIVDRLLDAMEQQGPPAELVSAFALPVPSMVICALLGVPYADHELFEGLSRTLLQSADPQEVTEARDKLEDYFTALVERKRKEPGDGLLDELIAERLDSGELGHRELVRMAMLLLVAGHETTSNMLSLGTFTLLEHPEQFAALRADPSLLPAAVEELLRFLSIADGMVRVATEDIEIGGVTIRADDGVIFSTSVVNRDGAAYASPDTLDWERSARHHVAFGFGVHQCLGQNLARAEMEIAFGALFARFPGLRLAVPAAEIPVKPAHALQGLVELPVTW
chain 2: MKIDIDTSVCIGSGQCVLTAPGVFTQDDDGFSTLLPGREDGTGDPLVREAARACPVQAIAVTDD
**Q.** What does the source list for B4?
**A.** P450 concentration (effect of codon optimisation, expressed in E. coli BL21 (DE3), value ± SD): 3.6 ± 0.3 µM; P450 concentration [1]: 3.6 µM

B5: SriC14-SriF06: cytochrome P450 SriC14 (SEQ ID NO: 34) with ferredoxin SriF06 (SEQ ID NO: 35) (protein, listed as Streptomyces rimosus)
chain 1: MTETSTAFPAQDAPAFPSDRTCPYGLPETYARLRDSEDALRPVTLFDGRTAWVVTKHETARTLLADPRLSSNRTHPDFPLTSPRLAGLRDRRPAFISMDPPEHGPRRRMTISEFTVKRIKGMRPDIERIVHGFLDEMLAAGPPADLVSRFALPVPSMVICQLLGVPYADHDFFQDASRRLVQSTSAEEATGARDDLERYLDGLITTLESEPGPGLLGALVTRQLADGAIDRDELISNALLLLVAGHETTASMTSLSVITLLEHPEQHAALRDDPSLIPGAVEELLRYLAIADVAGARVATADIEVDGQVIRAGEGVIVVHSIANRDAGVFENPDTFDIHRSARHHLSFGYGVHQCLGQNLARLELEIILSALFERIPTLRLATPVERLTLRPGSTIQGVNELPVTW
chain 2: MHVTADRDVCVGAGMCALTAPGVFDQDDDGLVTVLTSDIGENDRDAVREAGMLCPSGALRVTE
**Q.** For B5, which P450 concentration [1] is on record?
**A.** 15.4 µM

B6: SriC20: cytochrome P450 from Streptomyces rimosus NRRL-2234, SEQ ID NO: 47 (protein, listed as Streptomyces rimosus)
chain: MPEIIDLGAYGPDFVADPHPYYAKLRAQGPVHRVRAPEMEPEFPQAWLIVGYDEARAVLADNRFAKDWSRANGSLADSEVLAEWQLMNMLDADPPQHTRLRKLVAREFTTRRVEALRPRVQQITDELLDAMLAAPDGRADLVEALAFPLPMTVICELLGVPDIERDTFRAWSNELVSPTDNEATMTAAREMAAYLDGLIESKRSSPGEDLLSALVRTSDEDGDQLSRQELLGMAFLLLVAGHETTVNLISNGVRALLQHPAQLAALRADPSLLDNAVEEMLRYDGPVETATWRFTAEPVGIGGVEIPAGEIVLVGLAGADRDPERFEAPDTFDITRETRGHVAFGHGIHFCLGAPLARVEGRIAVRTLLDRCPDLALDTAPEALTWRAGMTIRGPQHLPVRWR
**Q.** With B6 as the molecule, how does the P450 concentration [1] read?
**A.** 18.8 µM

From US11891642B2, “Biocatalytic techniques” (HYPHA DISCOVERY LIMITED, priority 2018, dated 2024)
